In article PMC4366370, “Overexpression of a Novel Thermostable and Chloride-Tolerant Laccase from Thermus thermophilus SG0.5JP17-16 in Pichia pastoris and Its Application in Synthetic Dye Decolorization” (PLoS ONE, 2015):

What was measured:
COc1ccccc1O = assay: purified protein; settings: optimal pH 7.5, 90°C
[1] = system: COc1cc(C=NN=Cc2cc(OC)c(O)c(OC)c2)cc(OC)c1O; assay: purified protein; settings: optimal pH 6.0, 90°C

LacTT (Thermus thermophilus SG0.5JP17-16)
Km (COc1ccccc1O): 363.3 ± 29.1 µM | kcat (COc1ccccc1O): 4.34 ± 0.216 s⁻¹ | kcat/Km (COc1ccccc1O): 12000 ± 1000 M⁻¹ s⁻¹ | Km [1]: 27.0 ± 1.5 µM | kcat [1]: 1 ± 0.061 s⁻¹ | kcat/Km [1]: 37000 ± 2700 M⁻¹ s⁻¹
